Data: patent EP0904107B1
pKd: −log10 of the molar value.

Target: FcRn of the neonatal mouse intestine (mouse) (UniProt Q61559)
Assay: cell-based or functional assay

| Inhibition of transmission (%) | Substance |
| --- | --- |
| 62.5 | Fc fragment produced by papain digestion of murine IgG1 (from UniProt P01868 98-324) |
| 21.5 | Fc-hybrid: heterodimer of WT Fc-hinge and HQ-310/HN-433 mutant |
| 44.4 | HN-433 mutant Fc-hinge fragment |
| 8.9 | HQ-310 mutant Fc-hinge fragment |
| 5.4 | HQ-310/HN-433 mutant Fc-hinge fragment |
| 20.2 | I-253 mutant Fc-hinge fragment |
| 8.9 | bovine serum albumin (from UniProt P02769 25-607) |
| 51.4 | murine IgG1 (complete glycosylated IgG1 molecule) (antibody) |
| 55.3 | wild type (WT) Fc-hinge fragment derived from murine IgG1 |

Target: recombinant soluble mouse FcRn (mouse) (UniProt Q61559)
Assay: SPR (BIAcore 2000), FcRn immobilised on CM5 chip, purified Fc-hinge fragment in flow, pH 6.0

| pKd | koff [s⁻¹] | kon [M⁻¹ s⁻¹] | Substance |
| --- | --- | --- | --- |
| 8.13 | 0.00461 | 620000 | wild type (WT) Fc-hinge fragment derived from murine IgG1 |

Target: recombinant soluble mouse FcRn (mouse) (UniProt Q61559)
Assay: inhibition of 125I-sFcRn binding to murine IgG1-Sepharose; molar ratio of inhibitor/FcRn 1/500

| % inhibition [%] | Substance |
| --- | --- |
| 0.2 | HQ-310/HN-433 mutant Fc-hinge fragment |
| 2.3 | I-253 mutant Fc-hinge fragment |
| 24.7 | murine IgG1 (complete glycosylated IgG1 molecule) (antibody) |
| 18.4 | wild type (WT) Fc-hinge fragment derived from murine IgG1 |

Target: recombinant soluble mouse FcRn (mouse) (UniProt Q61559)
Assay: inhibition of 125I-sFcRn binding to murine IgG1-Sepharose; molar ratio of inhibitor/FcRn 1/1000

| % inhibition [%] | Substance |
| --- | --- |
| 4 | HQ-310/HN-433 mutant Fc-hinge fragment |
| 6.5 | I-253 mutant Fc-hinge fragment |
| 45.6 | murine IgG1 (complete glycosylated IgG1 molecule) (antibody) |
| 34.1 | wild type (WT) Fc-hinge fragment derived from murine IgG1 |
